The text below walks through data of article PMC4269169.

This assay addresses GST-FLAG-Pol12 of Candida glabrata (Candida glabrata). As to the kind of experiment: pull-down.

The stoichiometry N is a count of units in the complex or per binding partner.

On to “His6-SUMO-Stn1 of Candida glabrata (natural protein)”, for which the stoichiometry N was 1.
